Measured values from the supplement of paper PMC11316812.
± gives the standard deviation of the averaged measurements.

How the values were obtained:
MCF7 = experiment: percentage of EdU-negative (G0-arrested) nuclei per well, 72 h; higher = more G0 arrest; conditions: reference: sequence is the full UniProt precursor, the tested protein was the secreted form or ectodomain
hTERT-HMEC = experiment: as above; conditions: reference: sequence is the full UniProt precursor, the tested protein was the secreted form or ectodomain
[1] = protein concentration 0.02175 µM
[2] = protein concentration 0.2175 µM
[3] = protein concentration 0.03125 µM
[4] = protein concentration 0.3125 µM
[5] = protein concentration 0.0225 µM
[6] = protein concentration 0.0357143 µM
[7] = protein concentration 0.357143 µM
[8] = protein concentration 0.0065 µM
[9] = protein concentration 0.022125 µM
[10] = protein concentration 0.22125 µM
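Further: secreted proteins added to cultured cells, EdU pulse at the end, nuclei found by Hoechst imaging, EdU status from nuclear versus surrounding ring intensity ratio, PBS as neutral control.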

Sequence: MALTGYSWLLLSATFLNVGAEISITLEPAQPSEGDNVTLVVHGLSGELLAYSWYAGPTLSVSYLVASYIVSTGDETPGPAHTGREAVRPDGSLDIQGILPRHSGTYILQTFNRQLQTEVGYGHVQVHEILAQPTVLANSTALVERRDTLRLMCSSPSPTAEVRWFFNGGALPVALRLGLSPDGRVLARHGIRREEAGAYQCEVWNPVSVSRSEPINLTVYFGPERVAILQDSTTRTGCTIKVDFNTSLTLWCVSRSCPEPEYVWTFNGQALKNGQDHLNISSMTAAQEGTYTCIAKNTKTLLSGSASVVVKLSAAAVATMIVPVPTKPTEGQDVTLTVQGYPKDLLVYAWYRGPASEPNRLLSQLPSGTWIAGPAHTGREVGFPNCSLLVQKLNLTDTGRYTLKTVTVQGKTETLEVELQVAPLG [Q2WEN9]
- percentage of EdU-negative (MCF7; [1]): 26.4 ± 2%
- percentage of EdU-negative (MCF7; [2]): 27.5 ± 2.3%
- percentage of EdU-negative (hTERT-HMEC; [1]): 5.23 ± 0.14%
- percentage of EdU-negative (hTERT-HMEC; [2]): 7.63 ± 2.6%

Sequence: MRPGAPGPLWPLPWGALAWAVGFVSSMGSGNPAPGGVCWLQQGQEATCSLVLQTDVTRAECCASGNIDTAWSNLTHPGNKINLLGFLGLVHCLPCKDSCDGVECGPGKACRMLGGRPRCECAPDCSGLPARLQVCGSDGATYRDECELRAARCRGHPDLSVMYRGRCRKSCEHVVCPRPQSCVVDQTGSAHCVVCRAAPCPVPSSPGQELCGNNNVTYISSCHMRQATCFLGRSIGVRHAGSCAGTPEEPPGGESAEEEENFV
- percentage of EdU-negative (MCF7; [3]): 26 ± 2.5%
- percentage of EdU-negative (MCF7; [4]): 24.7 ± 3.3%
- percentage of EdU-negative (hTERT-HMEC; [3]): 4.24 ± 0.09%
- percentage of EdU-negative (hTERT-HMEC; [4]): 4.84 ± 0.11%

Sequence: MEPAAALHFSLPASLLLLLLLLLLSLCALVSAQFTVVGPANPILAMVGENTTLRCHLSPEKNAEDMEVRWFRSQFSPAVFVYKGGRERTEEQMEEYRGRITFVSKDINRGSVALVIHNVTAQENGIYRCYFQEGRSYDEAILRLVVAGLGSKPLIEIKAQEDGSIWLECISGGWYPEPLTVWRDPYGEVVPALKEVSIADADGLFMVTTAVIIRDKYVRNVSCSVNNTLLGQEKETVIFIPESFMPSASPWMVALAVILTASPWMVSMTVILAVFIIFMAVSICCIKKLQREKKILSGEKKVEQEEKEIAQQLQEELRWRRTFLHAADVVLDPDTAHPELFLSEDRRSVRRGPYRQRVPDNPERFDSQPCVLGWESFASGKHYWEVEVENVMVWTVGVCRHSVERKGEVLLIPQNGFWTLEMFGNQYRALSSPERILPLKESLCRVGVFLDYEAGDVSFYNMRDRSHIYTCPRSAFTVPVRPFFRLGSDDSPIFICPALTGASGVMVPEEGLKLHRVGTHQSL [Q8WVV5]
- percentage of EdU-negative (MCF7; [5]): 25.6 ± 3.6%
- percentage of EdU-negative (MCF7; protein concentration 0.225 µM): 27.8 ± 0.4%
- percentage of EdU-negative (hTERT-HMEC; [5]): 4.5399 ± 0.0037%
- percentage of EdU-negative (hTERT-HMEC; protein concentration 0.225 µM): 8.99 ± 1.1%

Sequence: MAAAAATKILLCLPLLLLLSGWSRAGRADPHSLCYDITVIPKFRPGPRWCAVQGQVDEKTFLHYDCGNKTVTPVSPLGKKLNVTTAWKAQNPVLREVVDILTEQLRDIQLENYTPKEPLTLQARMSCEQKAEGHSSGSWQFSFDGQIFLLFDSEKRMWTTVHPGARKMKEKWENDKVVAMSFHYFSMGDCIGWLEDFLMGMDSTLEPSAGAPLAMSSGTTQLRATATTLILCCLLIILPCFILPGI [Q9BZM5]
- percentage of EdU-negative (MCF7; [6]): 22.2 ± 0.6%
- percentage of EdU-negative (MCF7; [7]): 25.5 ± 0.78%
- percentage of EdU-negative (hTERT-HMEC; [6]): 4.46 ± 0.35%
- percentage of EdU-negative (hTERT-HMEC; [7]): 5.89 ± 0.34%

Sequence: MVGTKAWVFSFLVLEVTSVLGRQTMLTQSVRRVQPGKKNPSIFAKPADTLESPGEWTTWFNIDYPGGKGDYERLDAIRFYYGDRVCARPLRLEARTTDWTPAGSTGQVVHGSPREGFWCLNREQRPGQNCSNYTVRFLCPPGSLRRDTERIWSPWSPWSKCSAACGQTGVQTRTRICLAEMVSLCSEASEEGQHCMGQDCTACDLTCPMGQVNADCDACMCQDFMLHGAVSLPGGAPASGAAIYLLTKTPKLLTQTDSDGRFRIPGLCPDGKSILKITKVKFAPIVLTMPKTSLKAATIKAEFVRAETPYMVMNPETKARRAGQSVSLCCKATGKPRPDKYFWYHNDTLLDPSLYKHESKLVLRKLQQHQAGEYFCKAQSDAGAVKSKVAQLIVIASDETPCNPVPESYLIRLPHDCFQNATNSFYYDVGRCPVKTCAGQQDNGIRCRDAVQNCCGISKTEEREIQCSGYTLPTKVAKECSCQRCTETRSIVRGRVSAADNGEPMRFGHVYMGNSRVSMTGYKGTFTLHVPQDTERLVLTFVDRLQKFVNTTKVLPFNKKGSAVFHEIKMLRRKKPITLEAMETNIIPLGEVVGEDPMAELEIPSRSFYRQNGEPYIGKVKASVTFLDPRNISTATAAQTDLNFINDEGDTFPLRTYGMFSVDFRDEVTSEPLNAGKVKVHLDSTQVKMPEHISTVKLWSLNPDTGLWEEEGDFKFENQRRNKREDRTFLVGNLEIRERRLFNLDVPESRRCFVKVRAYRSERFLPSEQIQGVVISVINLEPRTGFLSNPRAWGRFDSVITGPNGACVPAFCDDQSPDAYSAYVLASLAGEELQAVESSPKFNPNAIGVPQPYLNKLNYRRTDHEDPRVKKTAFQISMAKPRPNSAEESNGPIYAFENLRACEEAPPSAAHFRFYQIEGDRYDYNTVPFNEDDPMSWTEDYLAWWPKPMEFRACYIKVKIVGPLEVNVRSRNMGGTHRQTVGKLYGIRDVRSTRDRDQPNVSAACLEFKCSGMLYDQDRVDRTLVKVIPQGSCRRASVNPMLHEYLVNHLPLAVNNDTSEYTMLAPLDPLGHNYGIYTVTDQDPRTAKEIALGRCFDGTSDGSSRIMKSNVGVALTFNCVERQVGRQSAFQYLQSTPAQSPAAGTVQGRVPSRRQQRASRGGQRQGGVVASLRFPRVAQQPLIN
- percentage of EdU-negative (MCF7; [8]): 25.3 ± 0.34%
- percentage of EdU-negative (MCF7; protein concentration 0.065 µM): 25.9 ± 2%
- percentage of EdU-negative (hTERT-HMEC; [8]): 4.85 ± 0.48%
- percentage of EdU-negative (hTERT-HMEC; protein concentration 0.065 µM): 4.77 ± 1%

Sequence: MDLSLLWVLLPLVTMAWGQYGDYGYPYQQYHDYSDDGWVNLNRQGFSYQCPQGQVIVAVRSIFSKKEGSDRQWNYACMPTPQSLGEPTECWWEEINRAGMEWYQTCSNNGLVAGFQSRYFESVLDREWQFYCCRYSKRCPYSCWLTTEYPGHYGEEMDMISYNYDYYIRGATTTFSAVERDRQWKFIMCRMTEYDCEFANV
- percentage of EdU-negative (MCF7; [5]): 25.1 ± 0.98%
- percentage of EdU-negative (MCF7; protein concentration 0.225 µM): 26.2 ± 0.3%
- percentage of EdU-negative (hTERT-HMEC; [5]): 5.38 ± 0.62%
- percentage of EdU-negative (hTERT-HMEC; protein concentration 0.225 µM): 4.92 ± 0.97%

Sequence: MDMWTALLILQALLLPSLADGATPALRFVAVGDWGGVPNAPFHTAREMANAKEIARTVQILGADFILSLGDNFYFTGVQDINDKRFQETFEDVFSDRSLRKVPWYVLAGNHDHLGNVSAQIAYSKISKRWNFPSPFYRLHFKIPQTNVSVAIFMLDTVTLCGNSDDFLSQQPERPRDVKLARTQLSWLKKQLAAAREDYVLVAGHYPVWSIAEHGPTHCLVKQLRPLLATYGVTAYLCGHDHNLQYLQDENGVGYVLSGAGNFMDPSKRHQRKVPNGYLRFHYGTEDSLGGFAYVEISSKEMTVTYIEASGKSLFKTRLPRRARP
- percentage of EdU-negative (MCF7; [9]): 24.4 ± 1.2%
- percentage of EdU-negative (MCF7; [10]): 28.4 ± 1.4%
- percentage of EdU-negative (hTERT-HMEC; [9]): 4.67 ± 0.33%
- percentage of EdU-negative (hTERT-HMEC; [10]): 8.42 ± 0.15%
